Measurements taken from the supplement of paper PMC12042874.
± gives the uncertainty stated by the source.

assay: amyloid nucleation score (Sup35N fusion, yeast selection) (log enrichment); library NNK2; higher = more nucleation; inactive = no reads after selection
Outline: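 Peptides of 20 random codons, each fused to Sup35N, were expressed in psi-negative yeast. Cells were induced with 100 μM copper sulfate for 24 hours and grown 7 days at 30°C on medium lacking adenine and uracil, and plasmid inserts before and after selection were Illumina-sequenced. Nucleation scores are DiMSum log enrichments of output over input reads, centred on the mode score of non-aggregating sequences, and sequences under 100 input reads were excluded.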

Row | Substance | amyloid nucleation score
1 | FDVKGRISLNRYSINFNARL | 5.11 ± 0.073
2 | HARHRGVCFWCVADSAPVYH | -0.012 ± 1.1
3 | LMGGYLEYGSFVTT | 0.453 ± 0.51
4 | LCQNKTMTIGRFKIGHKWYP | 0.004 ± 1.1
5 | LFACFRNMLV | 0.504 ± 0.39
6 | LTSWKDFRHN | 0.4 ± 0.5
7 | LCYGFEYHVDGLYNVSYESS | 0.298 ± 0.37
8 | FCFISSYVPKLYSLKSQVVI | -0.988 ± 0.39
9 | GGRMHCARRTRMWVHLDAGM | 5.823 ± 0.049
10 | RISRFCL | 1.52 ± 0.26
11 | LYAVRSALYFCTVYFGSSNR | 3.18 ± 0.13
12 | CHRAKTVVGNRVNRGDWDNP | -0.434 ± 0.76
13 | MHRFRMSLVLRRGSGLVGWF | -0.081 ± 1.1
14 | AVIDIIKRTSCTCDESCCIL | 0.503 ± 0.31
15 | MTTYAVLGVPI | -0.421 ± 0.28
16 | TSGLILL | -0.301 ± 0.37
17 | LNTNPARYLPGMFNPRSKYL | -0.324 ± 1.1
18 | FKNRGLLICFEEEHLCAKRR | -1.05 ± 0.78
19 | TWTHCIGSLIR | -0.855 ± 0.76
20 | TRLPEMGLMDLITRSCYNRD | -1.35 ± 0.75
21 | SIHDVVYLGPVVVAKDSSVF | inactive
22 | GCVRIMPCVFGSVRWHWYVW | 1.28 ± 0.25
23 | WFMVYYSLFTVNIGISRMDH | 3.52 ± 0.16
24 | ESIVDWSYCFLTTFMSPRWA | 0.193 ± 0.65
25 | RGERVSPNNGTS | 0.87 ± 0.14

Row | Substance | amyloid nucleation score
26 | RLHEYVSLLRGNQRVAHSRS | 3.893 ± 0.037
27 | LPLLSWDPRNTSP | -0.218 ± 0.53
28 | PIWFQFGVANTSGLNGVLTS | 0.612 ± 0.34
29 | AIPVYFVLLMSITPLQLVVM | 1.38 ± 0.15
30 | YRCVWYGFPSRSWAGSSDIL | 0.309 ± 0.8
31 | AVYCTL | 0.088 ± 0.35
32 | SSMSLWFMHYRNSKSCL | -0.721 ± 0.33
33 | VWNSIDTIYIYRHNYGFFYF | 0.751 ± 0.36
34 | LFVCNSMP | 0.35 ± 0.8
35 | ELVRDGYTPFLFLILETVVM | -0.202 ± 0.49
36 | RLYWVGGATGRFD | 2.02 ± 0.19
37 | LVNMGSGPALYLYPLSIMVK | -1.42 ± 1.1
38 | SEFVGSYWGFDLMLGLD | -0.807 ± 1
39 | FKNLAFTFNLQCL | 6.472 ± 0.051
40 | GKNELYQVS | 0.774 ± 0.41
41 | GAGHNNLLEDAFTSRSVTAR | 0.489 ± 0.28
42 | KVYSKCFNGFRS | 0.164 ± 0.8
43 | CYHVTLMR | 0.718 ± 0.26
44 | EMSFSLTYSRSRHFRSGGTA | 6.32 ± 0.064
45 | DVYTQASLGMS | inactive
46 | IRDFYILAYRWLSQSHVMAN | inactive
47 | DARSDVF | inactive
48 | FWSVEMMRHTSSFIFAEWNK | -0.033 ± 0.2
49 | HMSTVLLAVAFIALNFPSVE | -0.373 ± 1
50 | TINTAMWTWSITETLPYCTW | 4.03 ± 0.06

Row | Substance | amyloid nucleation score
51 | TYPMMGQGFC | 0.131 ± 0.55
52 | RFSVDRSSRELICMLGQFDN | 0.356 ± 0.38
53 | AVSYVDILAFGLMFQKSLGK | 5.74 ± 0.063
54 | NPRFLDRCYLYYPGSASRVA | inactive
55 | ASPSHACGLC | 2.12 ± 0.15
56 | LMWADLLLKKLILFA | -0.334 ± 0.64
57 | NSTCDMLVSQVVAAVNGF | -0.715 ± 0.49
58 | LKWRVRWAIKED | 0.547 ± 0.21
59 | VISASSVAP | 0.557 ± 0.31
60 | NNSWTDLRCVIYMSITGEPH | 8.633 ± 0.044
61 | ENSANNLGMFERSSRYRLSG | 0.356 ± 0.34
62 | GSVTRGVRRAY | 4.73 ± 0.06
63 | FMTFK | 3.14 ± 0.13
64 | RLGIVSSVLVYWLYNYYSVL | inactive
65 | GLSQILDDVGWICRVFELQR | 0.299 ± 0.37
66 | LLGAGLSITMWDGPQL | 0.654 ± 0.23
67 | SICRPIMSESWIASPCVLVG | -0.012 ± 0.24
68 | LSSLYFSLFNYYLFNRFIFN | inactive
69 | CLYRRLYKLALNMEIIILRY | inactive
70 | MFILGVRPMISKSHNVPTQR | -0.171 ± 0.42
71 | MPPFGNDCTDREDVCMGRFV | inactive
72 | SIVMFVCDLRNQPTAIFRDR | 8.256 ± 0.074
73 | RAPFLKMCL | -1.22 ± 0.75
74 | VDIVFSPSTNQWFLFLNCLV | 4.24 ± 0.038
75 | TWHSIWREYSGTFTHTYWTD | 0.555 ± 0.62

Row | Substance | amyloid nucleation score
76 | LVVNASLRWIRHWSKGF | 4.515 ± 0.035
77 | NWNLRHRCAGWYCDRRKVLR | 4.28 ± 0.085
78 | TVGHDQASYMGFGSFYTSVF | -0.538 ± 0.76
79 | PLNCLPGNCSAQPRFGAASG | 0.505 ± 0.39
80 | FICALTMYICSLY | 7.389 ± 0.027
81 | SGDGVLVSFSKDSGFQSFGS | 0.673 ± 0.2
82 | MLYSWKFPEVASGNLKCRLE | -0.24 ± 0.32
83 | MNHTDGQHCFVSWRCLDGWR | 0.705 ± 0.66
84 | NARWKDVYHPLTYCFVNLWT | 8.115 ± 0.034
85 | ASSTRRSRSFNIGILCMFRM | 5.66 ± 0.06
86 | DLSISSLGFQNIVLSHDNGY | -1.13 ± 1.1
87 | LERNSMPITVSWSGFEGLKG | -0.295 ± 0.65
88 | HGTNTRADYFCIYPHGNG | -0.281 ± 0.37
89 | GKGNLQSCYEWKYKKLYVHT | -0.248 ± 0.38
90 | NFYIATIRTAFLSVMAVRN | 3.29 ± 0.089
91 | FLSVARPTF | inactive
92 | NELEHVFLMRYKC | inactive
93 | RALVYVWACSVLLDNCTSRH | -0.935 ± 1.1
94 | EHVGVTTVPIPLGMGLTWWC | 0.309 ± 0.16
95 | CFRNWACMSSQRYCMVVRGN | -1.58 ± 0.54
96 | YYLVYKAGKMLIEYHKSYNW | -1.1 ± 1
97 | DRNVTESMGYVWTASWGAY | 0.366 ± 0.41
98 | YIIRRYWARPSYVNSFM | -0.31 ± 0.74
99 | RWMVHAA | -0.251 ± 0.76
100 | MSMYDAAIEFLLRCGYVRSY | 0.328 ± 0.34

Row | Substance | amyloid nucleation score
101 | GYLSGYLRGSNILGHERYRY | -0.85 ± 0.32
102 | KATSCFLDWCGCPWHLMALD | 0.496 ± 0.29
103 | LIIQRLEGAF | -0.245 ± 0.32
104 | QVFFFLITSRVRSVRFSQEF | 1.62 ± 0.25
105 | DVAYSYRHECIADKLLRVEH | 0.019 ± 0.55
106 | SVFVYYGFQENSAFSIWLAP | -0.96 ± 0.54
107 | VSENDGVRACCLS | 0.474 ± 0.44
108 | NTSFRGTTTRKSY | -0.233 ± 0.29
109 | SGSGGSSLLFTIGEQGRRRI | -0.876 ± 0.45
110 | YFLGMVPSFSLWYETSQSQC | -0.768 ± 0.42
111 | LHIKW | 5.728 ± 0.033
112 | RKMGSFNHLSERVSYHCVWL | 3.96 ± 0.052
113 | MNRPVHSDYVYSFSLEFVVV | -0.089 ± 1.1
114 | NFNGYM | -1.09 ± 0.3
115 | LVSLLFFGSVSLAKCQWN | -0.526 ± 0.79
116 | FAFICTR | inactive
117 | NGVRSWSQHLWKRGRWEG | 1.69 ± 0.3
118 | LCNSEIFNMANISMS | 0.498 ± 0.19
119 | RSVVVGGHNLRISTQAILIP | 0.34 ± 0.64
120 | GMSITPWHWFGPCISFPDIN | -0.55 ± 0.53
121 | RYISPSQSAQVSGHLRNVQL | 0.689 ± 0.62
122 | SCAHCCHRKVLR | 0.53 ± 0.3
123 | PMAPSCLYRIIIMN | 1.51 ± 0.26
124 | ISGSRWRLGAIVGTVVEAFG | -0.049 ± 0.76
125 | IYRGESIIWVNNSWIEDSLR | 1.56 ± 0.12

Row | Substance | amyloid nucleation score
126 | SMIDGWGRVFHYAVVQISMN | 6.158 ± 0.032
127 | VFTTLDWTSKYALIR | 0.56 ± 0.5
128 | HWTSFKSGNALGMCETI | 0.076 ± 0.41
129 | NTQDFGLCYIFFLQDRCN | -0.117 ± 0.49
130 | SDAFGRRHSSLAM | 1.56 ± 0.14
131 | KLLPEWSWKG | 0.428 ± 0.39
132 | SGSRYAIVSYG | -0.139 ± 0.53
133 | IWSSHRVSHGVILESGEVWA | -0.25 ± 0.42
134 | INVFGGHLMSYMKSISRVVC | -1.13 ± 0.64
135 | VAFKRLGNMSSGTFSWAMLN | 0.894 ± 0.74
136 | FPARFHACLDYKWFGTGRPS | 2.41 ± 0.12
137 | LFRFYCMIANCIVLQN | 4.93 ± 0.045
138 | SIGLLTGKWLPSLMVLYLLV | 1.29 ± 0.44
139 | DYMFIDLASSNTNLRSWSHS | -0.408 ± 0.37
140 | GSSTMWNVLVAWLRTIL | inactive
141 | LVHYPIYFLDNGFRHGDWEG | -0.187 ± 0.55
142 | KSLYCVNFLCRPECANPSSS | 6.592 ± 0.029
143 | GNTLGRFMVLHT | -0.199 ± 0.8
144 | LAQQRPLRQRTMRHGSRFTA | 0.671 ± 0.43
145 | SCLLWAF | -1.54 ± 1.1
146 | PSVTRVLSLVILEAPNA | 2.76 ± 0.14
147 | YISIPDVCLLHSIPQSRASI | inactive
148 | IYHYPKRREGVIK | 0.224 ± 0.56
149 | YLSKTLIAVMDFCVLDTG | -0.971 ± 0.48
150 | RISSSGRP | 2.03 ± 0.082

Row | Substance | amyloid nucleation score
151 | RYVLSMFQLLLTYVQL | 0.561 ± 0.23
152 | KNTMIGSLRLVIYFSSGDKV | 7.17 ± 0.034
153 | RNVGDLMSRGSYYSIPSGNL | -1.03 ± 0.41
154 | KSLKCFHLVRFTFS | -0.492 ± 0.36
155 | QHVGDSWMSSVNLGVLRVRL | 0.055 ± 0.35
156 | LFSSQLTATVRVPMSRNGLW | 7.088 ± 0.031
157 | AGCGIPALTYNNRRAKTHAQ | 0.901 ± 0.53
158 | DGPWYYTVRAEIQPM | 3.78 ± 0.079
159 | DFKDEGYQRRV | -0.37 ± 0.65
160 | SLVIKTLMIFAYSGATVSRG | -0.545 ± 0.64
161 | VSTWTYSHRAPRG | 1.52 ± 0.26
162 | EEKEVDVEVGRETHMSARDN | 0.563 ± 0.15
163 | DGRKALI | 1.87 ± 0.35
164 | SYCSL | 0.548 ± 0.38
165 | IHDELSRCRC | -0.611 ± 0.63
166 | FSSIDPPNTRSAVSFRMTSP | 0.065 ± 0.65
167 | FFLIRSMGSSSAYRLRVCWR | -0.37 ± 0.76
168 | TTKPSAILWGSTSKRPRLPR | 1.23 ± 0.34
169 | LFRVMILC | -0.239 ± 0.42
170 | MWVWQEPDVWARLCLDGYEK | -0.127 ± 0.45
171 | PYNLVGLGLFSPAGF | -0.849 ± 0.61
